From PMC4776142, “Comparative evaluation of p5+14 with SAP and peptide p5 by dual-energy SPECT imaging of mice with AA amyloidosis” (Scientific Reports, 2016)

Columns and labels:
[1] = system: amyloid-free organs of WT mice; experiment: Dual-energy tissue biodistribution in amyloid-free WT mice; assay type: in vivo, mouse; conditions: n = 5, SAP 24 h and p5+14 4 h post injection
Procedure: (§1) Dual-energy comparative uptake experiments were performed in individual AA mice (5 wk post amyloid induction with AEF) and wild type mice (n = 5 per group). All SPECT/CT imaging was performed using an Inveon trimodality SPECT/PET/CT platform[37] (Siemens preclinical, Knoxville, TN). Image data were acquired and reconstructed using Inveon Acquisition Workplace (IAW) ver. 2.0.
For the comparison of ^125I-SAP and ^99mTc-p5+14, mice were administered ^125I-SAP (45 μCi, 8 μg) and 20 h thereafter received ^99mTc-p5+14 (110 μCi, 5 μg). Mice were euthanised 4 h after injection of the ^99mTc-p5+14. The image data for the low and high energy radionuclides were obtained sequentially by acquiring 60, 16-second projections in a total of 1.5 revolutions. […]
For comparison of the p5+14 and p5 peptides, mice were injected IV in the lateral tail vein with a mixture of ^125I-p5+14 (150 μCi, ~3 μg) and ^99mTc-p5 (300 μCi, ~8 μg) and the mice euthanised by an overdose of isoflurane anaesthetic 1 h post injection. […] The radioactivity in the low and high energy windows (^125I and ^99mTc, respectively) was measured using an automated Wizard 3 gamma counter (1480 Wallac Gamma Counter, Perkin Elmer) with a crossover correction from the high to low energy channel of 4.6%, applied manually. Biodistribution data were expressed as percent injected dose per gram (%ID/g) of tissue.

[2] = target: T1, AA amyloid in H2/IL-6 mice (Mus musculus, UniProt P05367); experiment: Dual-energy tissue biodistribution of 125I-SAP and 99mTc-p5+14 in AA mice; assay type: in vivo
T1 construct: Systemic distribution of AA amyloid in H2/IL-6 mice; from tissue; host or cells: organs of living H2/IL-6 Balb/c mice after induction with amyloid enhancing factor
T1 sequence (P05367 20-94 limits assumed): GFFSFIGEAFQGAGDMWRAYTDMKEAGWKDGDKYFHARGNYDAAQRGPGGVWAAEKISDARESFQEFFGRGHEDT
Procedure: Transgenic H2-L^d-huIL-6 Balb/c mice (H2/IL-6) constitutively express the human IL-6 transgene leading to chronic, severe inflammation and the overproduction of acute phase reactants, such as serum amyloid protein A, the precursor protein of systemic, inflammation-associated (AA) amyloidosis. Amyloid deposition was induced in 8–wk old female mice by IV injection of 100 μg of amyloid enhancing factor (AEF – an insoluble preparation of amyloid fibrils isolated from the spleen of mice with AA amyloidosis) suspended in sterile phosphate buffered saline (PBS)[34]. All animal procedures were performed in accordance with protocols approved by the University of Tennessee Animal Care and Use Committee. The University of Tennessee is an Association for Assessment and Accreditation of Laboratory Animal Care International (AAALAC-I) accredited institution.
as §1
For the comparison of ^125I-SAP and ^99mTc-p5+14, mice were administered ^125I-SAP (45 μCi, 8 μg) and 20 h thereafter received ^99mTc-p5+14 (110 μCi, 5 μg). Mice were euthanised 4 h after injection of the ^99mTc-p5+14. The image data for the low and high energy radionuclides were obtained sequentially by acquiring 60, 16-second projections in a total of 1.5 revolutions. A 1 mm-diameter aperture, five-pinhole (mouse whole body) collimator was used at 30 mm from the centre of the field of view. The image data in the appropriate energy window were reconstructed using a Maximum A Priori algorithm (MAP - 16 iterations, 6 subsets, β = 1) onto a matrix with x and y dimensions of 88 and z dimension of 312 and 0.5-mm isotropic voxels. Post hoc attenuation correction was then applied to reconstructed data using CT image data. Scatter correction was performed using a SPECT triple energy window (TEW) method.
For comparison of the p5+14 and p5 peptides, mice were injected IV in the lateral tail vein with a mixture of ^125I-p5+14 (150 μCi, ~3 μg) and ^99mTc-p5 (300 μCi, ~8 μg) and the mice euthanised by an overdose of isoflurane anaesthetic 1 h post injection. Tissues were harvested at necropsy for biodistribution measurements. Organs were also harvested from mice injected with ^125I-SAP and ^99mTc-p5+14 after SPECT/CT imaging. A small volume of tissue from each mouse was placed into a tared plastic vial and weighed. The radioactivity in the low and high energy windows (^125I and ^99mTc, respectively) was measured using an automated Wizard 3 gamma counter (1480 Wallac Gamma Counter, Perkin Elmer) with a crossover correction from the high to low energy channel of 4.6%, applied manually. Biodistribution data were expressed as percent injected dose per gram (%ID/g) of tissue.
Skewness and kurtosis statistics were used to assess the statistical assumption of normality for between-subjects comparisons and correlations. Any skewness or kurtosis statistic above an absolute value of 2.0 assumed a non-normal distribution. The assumption of homogeneity of variance was tested with Levene’s Test of Equality of Variances. Independent samples t-tests were used to compare p5+14 and SAP retention in amyloid laden organs (liver, spleen, pancreas, intestines and heart). Means and standard deviations were reported for the analyses. If a statistical assumption was violated, a non-parametric Mann-Whitney U test was used. Medians and interquartile ranges (IQR) were reported for non-parametric statistics. Pearson correlations were run to compare tissue biodistribution data (%ID/g) in all organs. […]

[3] = AA mice 5 wk post-AEF, n = 5, 125I-SAP 45 μCi, 8 μg, 24 h post injection, crossover-corrected

## 125I-SAP: purified human SAP radioiodinated with 125I
[1]
  Retention in amyloid-free organs: no retention
[2]; [3]
  Tissue biodistribution, heart, Mean ± SD: 0.7 ± 0.1 %ID/g
  Tissue biodistribution, intestine, Mean ± SD: 0.8 ± 1.1 %ID/g
  Tissue biodistribution, liver, Mean ± SD: 14.1 ± 3.5 %ID/g
  Tissue biodistribution, pancreas, Median (Interquartile range): 0.7 (0.5)[3] %ID/g
  Tissue biodistribution, spleen, Mean ± SD: 23.8 ± 3.5 %ID/g
[2]; AA mice, in each mouse studied, p < 0.001
  Uptake in the spleen as compared to 99mTc-p5+14: ~ 4 fold
[2]; AA mice, 125I-SAP, 24 h post injection
  Uptake by pancreatic AA amyloid: < 1 %ID/g
